Target: the molecule itself
Assay: thioflavin T fluorescence; 20 μM protein pre-incubated at 70 °C for 10 min, stoichiometric ThT, 20 mM sodium phosphate pH 7.2, 100 mM NaCl; self-association into fibrillar aggregates

B1: KH0 domain of FMRP, R138Q pathological variant, res 122-205 (domain or fragment)
chain: not shown
notes: KH0 domain of human FMRP, residues 122-205, Uniprot Q06787, with the missense mutation R138Q found in FXS patients; Made by site-directed mutagenesis of the KH0 construct; the histidine tag was removed by thrombin for the fibrillation/aggregation experiments; also called KH0-R138Q; variant protein; source: E. coli BL-21 (DE3), purified (HisTrap FF, thrombin cleavage, Superdex75 size exclusion)
Question: Does B1 bind?
Answer: binds
